For two molecules, Kd results are on record in paper PMC13079917.

One may read the Kd as a measure of binding affinity in units of concentration.

In the assay the target is Monoclonal antibody L9 (human IgG). As to the kind of experiment: KinExA (kinetic exclusion assay); equilibrium in solution; antigen serially diluted into a constant concentration of antibody (human IgG as constant binding partner); equilibrated 24 h; room temperature (about 25 °C); 1x HBS-EP+ pH 7.4 with BSA at 1 mg/mL; antigen cross-linked to beads as capturing reagent; n-curve analysis. For orientation: In KinExA the mixture passes briefly over coated beads that capture the unbound partner.
Chain of Monoclonal antibody L9 (human IgG) (heavy, as listed by the source, chain 1 of 2): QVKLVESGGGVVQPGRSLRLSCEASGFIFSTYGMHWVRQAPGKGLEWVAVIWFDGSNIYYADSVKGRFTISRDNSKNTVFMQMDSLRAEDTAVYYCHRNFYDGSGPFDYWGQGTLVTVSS
Chain of Monoclonal antibody L9 (human IgG) (light, as listed by the source, chain 2 of 2): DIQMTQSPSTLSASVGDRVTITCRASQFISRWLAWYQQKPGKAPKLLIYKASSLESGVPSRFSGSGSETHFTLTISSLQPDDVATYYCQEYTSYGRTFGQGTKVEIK

Molecule NANPNVDPNANPNVDPNANPNVDP (modifications not checked) [triple-NPNV peptide] yielded a Kd of 0.059 nM.
The result for NANPNVDPNANPNVDP (modifications not checked) [double-NPNV peptide] reads 4.56 nM.
